According to article PMC7267771:
pKd: −log10 of the molar value.

Experiments:
[1] = molecular target: P. aeruginosa PBP1B (P. aeruginosa PA01)
[2] = molecular target: P. aeruginosa PBP1B (P. aeruginosa PA01); assay: SPR; PaPBP1B immobilised on a GLC amine coupling sensorchip (BioRad ProteOn XPR36); analyte in 1:1 serial dilution from 10 μM to 19.5 nM; 25°C; 75 μL/min, 5 min injection; 10 mM Tris/HCl, 150 mM NaCl, 0.05% Triton X-100, pH 7.5; response at equilibrium, non-linear regression assuming one-site saturation
[3] = molecular target: P. aeruginosa CpoB lacking its periplasmic export sequence (residues 22-274) (P. aeruginosa PA01); assay: SEC; PaCpoB alone, last step of its purification, procedure as for LpoP
[4] = molecular target: biotin-labeled UB2H domain of P. aeruginosa PBP1B (P. aeruginosa); assay: BLI; UB2H-Biot (25 μg/ml) immobilised on streptavidin biosensors (OctetRED96e); LpoP 0 to 6 μM; HBS-T (10 mM Hepes pH 7.5, 150 mM NaCl, 0.02% Tween); 23°C; responses at equilibrium of two series fitted together
biotin-labeled UB2H domain of P. aeruginosa PBP1B (P. aeruginosa), sequence (main, as listed by the source): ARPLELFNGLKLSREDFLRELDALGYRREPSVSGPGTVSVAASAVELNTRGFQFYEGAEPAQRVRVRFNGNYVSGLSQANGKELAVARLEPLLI

“LpoP lacking its lipoprotein sorting sequence (residues 20-259) (natural protein)” was tested, and the GTase rate of PaPBP1B with and without LpoP (continuous fluorescence assay, 0.5 μM PaPBP1B, 10 μM LpoP, 37°C) [1] was 4.5 fold, the transpeptidation products made by PaPBP1B with and without LpoP (endpoint TPase assay with radiolabelled lipid II, 10 μM LpoP, 37°C, 3 h) [1] was 2 fold and the pKd [2] was 5.38.

For “P. aeruginosa CpoB lacking its periplasmic export sequence (residues 22-274) (natural protein)”, the stoichiometry N [3] was 3.

For “LpoP (residues 20-259), preparation for NMR and BLI (natural protein)”, the pKd [4] was 6.40.
